Experimental data as given in article PMC4069103, “Computational Design of a pH Stable Enzyme: Understanding Molecular Mechanism of Penicillin Acylase's Adaptation to Alkaline Conditions” (PLoS ONE, 2014).

Substrate: O=C(Cc1ccccc1)Nc1ccc([N+](=O)[O-])c(C(=O)O)c1
Assay: purified protein
Type: biochemical, Escherichia coli
Settings: pH 7.5, 25°C, 10 mM phosphate, 0.1 M KCl, hydrolysis

B1: penicillin acylase from Escherichia coli (EcPA) (Escherichia coli) (protein)
chain 1: EQSSSEIKIVRDEYGMPHIYANDTWHLFYGYGYVVAQDRLFQMEMARRSTQGTVAEVLGKDFVKFDKDIRRNYWPDAIRAQIAALSPEDMSILQGYADGMNAWIDKVNTNPETLLPKQFNTFGFTPKRWEPFDVAMIFVGTMANRFSDSTSEIDNLALLTALKDKYGVSQGMAVFNQLKWLVNPSAPTTIAVQESNYPLKFNQQNSQTA
chain 2: SNMWVIGKSKAQDAKAIMVNGPQFGWYAPAYTYGIGLHGAGYDVTGNTPFAYPGLVFGHNGVISWGSTAGFGDDVDIFAERLSAEKPGYYLHNGKWVKMLSREETITVKNGQAETFTVWRTVHGNILQTDQTTQTAYAKSRAWDGKEVASLLAWTHQMKAKNWQEWTQQAAKQALTINWYYADVNGNIGYVHTGAYPDRQSGHDPRLPVPGTGKWDWKGLLPFEMNPKVYNPQSGYIANWNNSPQKDYPASDLFAFLWGGADRVTEIDRLLEQKPRLTADQAWDVIRQTSRQDLNLRLFLPTLQAATSGLTQSDPRRQLVETLTRWDGINLLNDDGKTWQQPGSAILNVWLTSMLKRTVVAAVPMPFDKWYSASGYETTQDGPTGSLNISVGAKILYEAVQGDKSPIPQAVDLFAGKPQQEVVLAALEDTWETLSKRYGNNVSNWKTPAMALTFRANNFFGVPQAAAEETRHQAEYQNRGTENDMIVFSPTTSDRPVLAWDVVAPGQSGFIAPDGTVDKHYEDQLKMYENFGRKSLWLTKQDVEAHKESQEVLHVQR
notes: heterodimer of alpha (209 residues) and beta (557 residues) chains matured from one pac precursor; modified pBR322 vector with cat gene, expressed in E. coli TG-1, osmotic shock, hydrophobic chromatography; no tag mentioned
  Km: 25.0 ± 0.8 µM
  kcat: 25 ± 1.4 s⁻¹
  kcat/Km: 1e+06 ± 90000 M⁻¹ s⁻¹
